Laboratory results as given in patent publication US20220064276A1 (SCHOLAR ROCK, published 2022).
Substitutions are numbered along the chain they refer to. Read-outs that look alike come from different tables or passages of the source. Each block holds one binder with its values, some of them ahead of it.

Experiments:
[1] = biological target: T1, mouse LTBP1-proTGFβ1 complex (mouse, UniProt Q8CG19 339-1712; P04202 30-390); assay: cell-based or functional assay
[2] = biological target: T2, LTBP-proTGFβ1: transfected human proTGFβ1 presented by endogenous LTBP1/3 of LN229 cells (human); assay: cell-based or functional assay
[3] = biological target: T3, human GARP-proTGFβ1 complex (human, UniProt Q14392 18-627; P01137 30-390, limits assumed); assay: Octet (bio-layer interferometry), response at 200 nM antigen; 0.1 nm cutoff designates meaningful binding
T3 construct: Exemplary entries; also called Hu GARP-proTGFβ1; huGARP proTGFb1
Description: This experiment was performed at 200, 100, 50, and 25 nM human GARP proTGFb1 and human LTBP1 proTGFbl. […] Surface plasmon resonance (SPR)-based assays

[4] = biological target: T4, human LTBP1-proTGFβ1 complex (human, UniProt Q14766 347-1721; P01137 30-390); assay: Octet BLI, IgG captured
T4 construct: Large latent complex: one presenting molecule disulfide-linked to a proTGFβ1 dimer; also called Hu LTBP1-proTGFβ1; huLTBP1 proTGFβ1
Description: (§1) Binding affinities of the optimized antibodies were measured by Octet against human LTBP1-proTGFβ1, human LTBP3-proTGFβ1, mouse LTBP1-proTGFβ1, mouse LTBP3-proTGFβ1, and GARP-proTGFβ1 complexes, essentially as described in Example 6. […] The antigens were allowed to associate for 3 minutes followed by a 5-minute dissociation. Kinetics buffer (ForteBio®) was used throughout the experiment, and KD was determined using a 1:1 fitting model for each antibody antigen pair.

[5] = biological target: T5, human LTBP3-proTGFβ1 complex (human, UniProt Q9NS15 44-1303; P01137 30-390, limits assumed); assay: Octet BLI, IgG captured
T5 construct: Exemplary entries; also called Hu LTBP3-proTGFβ1; huLTBP3 proTGFb1
Description: as §1

[6] = biological target: T1, mouse LTBP1-proTGFβ1 complex; assay: Octet BLI, IgG captured
Description: as §1

[7] = biological target: T6, mouse LTBP3-proTGFβ1 complex (mouse, UniProt Q61810 41-1245; P04202 30-390, limits assumed); assay: Octet BLI, IgG captured
T6 construct: Exemplary entries; also called Mo LTBP3-proTGFβ1; Murine LTBP3 proTGFb1
Description: as §1

[8] = biological target: T1, mouse LTBP1-proTGFβ1 complex; assay: cell-based or functional assay; remark: listed apart in the source
[9] = biological target: T2, LTBP-proTGFβ1: transfected human …; assay: cell-based or functional assay; remark: listed apart in the source
[10] = biological target: T4, human LTBP1-proTGFβ1 complex; assay: Octet BLI, IgG captured; remark: listed apart in the source
Description: (§2) LTBP complex-specific antibodies from the first round of affinity maturation/optimization (SR-AB14, SR-AB16, SR-AB17, SR-AB18, SR-AB19) were selected for a second round of affinity maturation/optimization (i.e., CDR-H3 mutagenesis as described herein) and particular progeny antibodies (SR-AB20, SR-AB21, SR-AB22, SR-AB23, SR-AB24, SR-AB25, SR-AB26, SR-AB27, SR-AB28, and SR-AB29) were assessed for their ability to bind various proTGFβ1 constructs. Binding affinities of the optimized antibodies were measured by Octet against human LTBP1-proTGFβ1, human LTBP3-proTGFbl, mouse LTBP1-proTGFβ1, mouse LTBP3-proTGFbl, and GARP-proTGFβ1 complexes, essentially as described in Example 6. […] The antigens were allowed to associate for 3 minutes followed by a 5-minute dissociation. Kinetics buffer (ForteBio®) was used throughout the experiment, and KD was determined using a 1:1 fitting model for each antibody antigen pair.

[11] = biological target: T1, mouse LTBP1-proTGFβ1 complex; assay: Octet BLI, IgG captured; remark: listed apart in the source
Description: as §2

[12] = biological target: T6, mouse LTBP3-proTGFβ1 complex; assay: Octet BLI, IgG captured; remark: listed apart in the source
Description: as §2

[13] = biological target: T1, mouse LTBP1-proTGFβ1 complex; assay: cell-based or functional assay; remark: listed apart in the source
[14] = biological target: T2, LTBP-proTGFβ1: transfected human …; assay: cell-based or functional assay; remark: listed apart in the source
[15] = biological target: T4, human LTBP1-proTGFβ1 complex; assay: SPR Biacore 8K, Fab over captured antigen
Description: (§3) A Biacore 8K system was employed to determine the monovalent binding affinity and the kinetic parameters for antigen binding of test antibodies. Association and dissociation kinetics of Fab fragments SR-AB42-HuFab, SR-AB63-HuFab and SR-AB43-HuFab to antigen complexes were measured, and resulting ka, kd and KD are provided below. Briefly, the binding kinetics were evaluated by surface plasmon resonance using Biacore 8K (GE Healthcare). Biotinylated capture antigens were immobilized to the chip (10 nM, ˜200 RU loading). A Biotin CAPture sensor chip was used to capture the biotinylated antigens. […] 0 nM was used as a reference. […] 0 nM was used as a reference. Multi-cycle kinetics was employed where each analyte concentration was injected in a separate cycle and the sensor chip surface was regenerated after each cycle. A11 the assays were carried out in freshly prepared 1× HBS-EP+ buffer (10 mM HEPES, 150 mM NaCl, 3 mM EDTA, 0.05% Tween20, pH 7.4). Data were fit globally to a 1:1 binding model to obtain the kinetic parameters. The sensorgram for 0 nM analyte concentration was used as reference.

[16] = biological target: T7, mouse LRRC33-proTGFβ1 complex (mouse, UniProt Q8BMT4 20-651, limits assumed); assay: SPR Biacore 8K, Fab over captured antigen, Rmax fixed
T7 construct: also called MuLRRC33-ProTGFb1; Mu LRRC33-ProTGFβ1
Description: (§4) These experiments were performed using the Biacore 8K using the method “multi-cycle kinetics/affinity using Biotin CAPture kit.”
(§5) Data collection rate was set to 10 Hz and the Biotin CAPture step was performed for 300 seconds with a flow rate of 2 μL/minute. The Biotin CAPture reagent was used after a 1:5 dilution in 1× Biacore running buffer. Biotinylated ligands (the various complexes of TGFβ1) were utilized at a concentration of 10 nM and were immobilized to the sensor chip for 180 seconds with a flow rate of 10 μL/minute. […] Analyte contact time was 120 seconds and the dissociation time was 900 seconds. The regeneration cycle utilized was 120 seconds with a flow rate of 10 μL/minute.
(§6) The evaluation method used was “multi-cycle affinity using capture” and a 1:1 binding model was used. […] Global fits were utilized for every KD determination.

[17] = biological target: T4, human LTBP1-proTGFβ1 complex; assay: as above
Description: as §4, §5, §6

[18] = biological target: T3, human GARP-proTGFβ1 complex; assay: as above
Description: as §4, §5, §6

[19] = biological target: T5, human LTBP3-proTGFβ1 complex; assay: as above
Description: as §4, §5, §6

[20] = biological target: T1, mouse LTBP1-proTGFβ1 complex; assay: as above
Description: as §4, §5, §6

[21] = biological target: T8, mouse GARP-proTGFβ1 complex (mouse, UniProt G3XA59 18-628; P04202 30-390, limits assumed); assay: as above
T8 construct: Exemplary entries; also called MuGARP-ProTGFb1; Mu GARP-ProTGFβ1
Description: as §4, §5, §6

[22] = biological target: T6, mouse LTBP3-proTGFβ1 complex; assay: as above
Description: as §4, §5, §6

[23] = biological target: T9, human LRRC33-proTGFβ1 complex (human, UniProt Q86YC3 19-650; P01137 30-390, limits assumed); assay: as above
T9 construct: Exemplary entries; also called huLRRC33 proTGFb1; HuLRRC33-ProTGFb1
Description: as §4, §5, §6

[24] = biological target: T6, mouse LTBP3-proTGFβ1 complex; assay: SPR Biacore 8K, Fab over captured antigen; mean of 2
Description: as §3

T4 sequence (Q14766 347-1721 limits assumed, chain 1 of 2): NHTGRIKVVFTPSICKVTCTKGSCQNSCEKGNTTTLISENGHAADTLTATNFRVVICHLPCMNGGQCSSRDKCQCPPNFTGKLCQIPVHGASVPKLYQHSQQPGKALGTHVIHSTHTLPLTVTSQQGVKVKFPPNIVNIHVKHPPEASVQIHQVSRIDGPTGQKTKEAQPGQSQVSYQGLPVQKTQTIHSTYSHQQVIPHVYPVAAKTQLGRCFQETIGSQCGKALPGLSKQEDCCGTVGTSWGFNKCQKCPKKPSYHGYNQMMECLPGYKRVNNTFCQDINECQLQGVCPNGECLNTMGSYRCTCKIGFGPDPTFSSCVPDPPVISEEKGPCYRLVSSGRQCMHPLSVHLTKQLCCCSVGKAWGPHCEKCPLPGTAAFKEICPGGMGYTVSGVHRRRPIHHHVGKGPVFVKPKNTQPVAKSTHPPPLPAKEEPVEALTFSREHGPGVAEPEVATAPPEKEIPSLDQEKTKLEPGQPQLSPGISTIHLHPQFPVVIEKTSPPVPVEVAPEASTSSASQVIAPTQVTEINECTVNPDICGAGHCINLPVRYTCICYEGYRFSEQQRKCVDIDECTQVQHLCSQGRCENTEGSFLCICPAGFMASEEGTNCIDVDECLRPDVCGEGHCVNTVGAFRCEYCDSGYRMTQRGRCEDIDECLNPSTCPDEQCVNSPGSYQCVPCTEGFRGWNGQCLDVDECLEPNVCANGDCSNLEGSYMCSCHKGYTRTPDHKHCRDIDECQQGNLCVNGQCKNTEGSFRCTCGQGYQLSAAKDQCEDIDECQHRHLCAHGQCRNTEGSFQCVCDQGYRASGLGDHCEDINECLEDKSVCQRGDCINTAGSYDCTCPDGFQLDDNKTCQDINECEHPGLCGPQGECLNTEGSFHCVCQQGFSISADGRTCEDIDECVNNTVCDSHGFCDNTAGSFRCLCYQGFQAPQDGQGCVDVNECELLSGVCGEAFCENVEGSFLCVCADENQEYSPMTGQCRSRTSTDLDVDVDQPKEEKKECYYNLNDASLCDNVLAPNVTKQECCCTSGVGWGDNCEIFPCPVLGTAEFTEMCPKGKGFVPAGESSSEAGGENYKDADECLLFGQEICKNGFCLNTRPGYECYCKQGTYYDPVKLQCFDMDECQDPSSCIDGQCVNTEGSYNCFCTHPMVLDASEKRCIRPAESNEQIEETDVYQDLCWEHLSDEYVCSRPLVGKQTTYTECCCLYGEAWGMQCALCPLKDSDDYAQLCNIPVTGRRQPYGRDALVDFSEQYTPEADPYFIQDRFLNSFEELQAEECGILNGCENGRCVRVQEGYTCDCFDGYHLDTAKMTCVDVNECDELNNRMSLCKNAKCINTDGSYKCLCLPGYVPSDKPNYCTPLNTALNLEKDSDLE
T4 sequence (P01137 30-390 limits assumed, chain 2 of 2): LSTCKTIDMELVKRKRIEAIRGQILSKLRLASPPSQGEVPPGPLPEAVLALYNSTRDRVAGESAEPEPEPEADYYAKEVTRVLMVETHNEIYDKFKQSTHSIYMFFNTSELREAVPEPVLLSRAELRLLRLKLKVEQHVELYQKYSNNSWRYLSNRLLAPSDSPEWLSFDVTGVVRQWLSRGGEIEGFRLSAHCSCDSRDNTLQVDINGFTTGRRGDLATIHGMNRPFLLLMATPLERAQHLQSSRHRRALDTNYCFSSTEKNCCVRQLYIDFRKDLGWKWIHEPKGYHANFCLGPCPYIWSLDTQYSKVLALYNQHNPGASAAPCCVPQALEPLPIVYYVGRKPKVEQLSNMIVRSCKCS
T3 sequence (Q14392 18-627 limits assumed, chain 1 of 2): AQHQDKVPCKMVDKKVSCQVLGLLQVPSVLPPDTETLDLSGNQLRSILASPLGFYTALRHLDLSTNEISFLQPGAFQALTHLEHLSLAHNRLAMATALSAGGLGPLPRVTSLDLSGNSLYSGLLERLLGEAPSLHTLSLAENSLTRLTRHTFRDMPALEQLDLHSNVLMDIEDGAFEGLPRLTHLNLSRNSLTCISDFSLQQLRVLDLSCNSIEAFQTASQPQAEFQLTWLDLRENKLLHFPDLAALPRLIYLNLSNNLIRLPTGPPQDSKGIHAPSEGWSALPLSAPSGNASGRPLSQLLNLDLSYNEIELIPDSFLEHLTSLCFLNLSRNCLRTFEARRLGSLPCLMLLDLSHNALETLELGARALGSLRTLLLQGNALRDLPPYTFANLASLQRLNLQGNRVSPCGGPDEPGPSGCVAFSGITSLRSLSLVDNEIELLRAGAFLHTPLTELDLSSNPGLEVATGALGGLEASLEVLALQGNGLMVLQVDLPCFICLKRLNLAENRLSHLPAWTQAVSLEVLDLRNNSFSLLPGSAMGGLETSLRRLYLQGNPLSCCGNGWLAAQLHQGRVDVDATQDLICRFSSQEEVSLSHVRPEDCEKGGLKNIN
T3 sequence (P01137 30-390 limits assumed, chain 2 of 2): as the sequence (P01137 30-390 limits assumed, chain 2 of 2) above
T2 sequence (P01137 30-390): as the sequence (P01137 30-390 limits assumed, chain 2 of 2) above
T6 sequence (Q61810 other isoform, or with tags, fused parts or gaps limits assumed, chain 1 of 2): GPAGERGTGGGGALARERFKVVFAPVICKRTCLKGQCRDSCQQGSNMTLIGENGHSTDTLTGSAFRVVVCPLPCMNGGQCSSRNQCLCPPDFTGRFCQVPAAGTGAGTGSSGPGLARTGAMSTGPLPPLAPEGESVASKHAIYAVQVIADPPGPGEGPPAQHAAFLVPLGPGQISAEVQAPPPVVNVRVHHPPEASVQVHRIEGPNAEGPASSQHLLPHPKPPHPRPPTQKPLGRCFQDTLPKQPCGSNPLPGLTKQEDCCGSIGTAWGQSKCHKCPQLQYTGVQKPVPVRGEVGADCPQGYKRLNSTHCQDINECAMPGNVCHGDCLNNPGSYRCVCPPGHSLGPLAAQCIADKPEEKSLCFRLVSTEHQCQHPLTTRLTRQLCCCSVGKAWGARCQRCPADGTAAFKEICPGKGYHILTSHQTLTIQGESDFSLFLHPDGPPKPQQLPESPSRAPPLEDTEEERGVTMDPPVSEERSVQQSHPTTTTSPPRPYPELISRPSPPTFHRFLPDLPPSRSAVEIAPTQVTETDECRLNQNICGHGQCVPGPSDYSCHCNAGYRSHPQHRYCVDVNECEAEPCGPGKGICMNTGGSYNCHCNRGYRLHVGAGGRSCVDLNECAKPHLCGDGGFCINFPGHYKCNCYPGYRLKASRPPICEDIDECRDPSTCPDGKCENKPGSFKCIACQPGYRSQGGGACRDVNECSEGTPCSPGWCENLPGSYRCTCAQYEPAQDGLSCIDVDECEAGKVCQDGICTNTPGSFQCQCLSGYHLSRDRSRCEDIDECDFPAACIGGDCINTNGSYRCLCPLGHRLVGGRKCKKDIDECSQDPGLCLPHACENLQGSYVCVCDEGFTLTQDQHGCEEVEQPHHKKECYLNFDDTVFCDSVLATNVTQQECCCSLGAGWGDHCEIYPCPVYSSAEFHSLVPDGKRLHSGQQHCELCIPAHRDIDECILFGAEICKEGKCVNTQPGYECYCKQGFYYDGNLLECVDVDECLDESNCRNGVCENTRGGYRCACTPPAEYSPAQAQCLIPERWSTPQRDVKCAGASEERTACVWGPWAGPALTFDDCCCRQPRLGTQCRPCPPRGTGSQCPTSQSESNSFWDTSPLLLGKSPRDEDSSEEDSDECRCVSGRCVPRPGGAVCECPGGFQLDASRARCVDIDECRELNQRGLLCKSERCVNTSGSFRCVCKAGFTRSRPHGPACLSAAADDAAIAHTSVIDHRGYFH
T6 sequence (P04202 30-390 limits assumed, chain 2 of 2): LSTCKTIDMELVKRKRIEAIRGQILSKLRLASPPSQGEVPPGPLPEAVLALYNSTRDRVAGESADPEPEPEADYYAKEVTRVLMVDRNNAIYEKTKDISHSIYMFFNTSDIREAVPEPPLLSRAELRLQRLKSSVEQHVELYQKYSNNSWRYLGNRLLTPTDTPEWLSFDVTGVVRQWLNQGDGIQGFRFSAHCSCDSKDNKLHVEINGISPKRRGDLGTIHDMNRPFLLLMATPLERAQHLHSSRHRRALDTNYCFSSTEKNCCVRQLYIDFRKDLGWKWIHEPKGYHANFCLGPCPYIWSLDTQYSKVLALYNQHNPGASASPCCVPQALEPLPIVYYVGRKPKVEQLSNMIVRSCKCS
T9 sequence (Q86YC3 19-650 limits assumed, chain 1 of 2): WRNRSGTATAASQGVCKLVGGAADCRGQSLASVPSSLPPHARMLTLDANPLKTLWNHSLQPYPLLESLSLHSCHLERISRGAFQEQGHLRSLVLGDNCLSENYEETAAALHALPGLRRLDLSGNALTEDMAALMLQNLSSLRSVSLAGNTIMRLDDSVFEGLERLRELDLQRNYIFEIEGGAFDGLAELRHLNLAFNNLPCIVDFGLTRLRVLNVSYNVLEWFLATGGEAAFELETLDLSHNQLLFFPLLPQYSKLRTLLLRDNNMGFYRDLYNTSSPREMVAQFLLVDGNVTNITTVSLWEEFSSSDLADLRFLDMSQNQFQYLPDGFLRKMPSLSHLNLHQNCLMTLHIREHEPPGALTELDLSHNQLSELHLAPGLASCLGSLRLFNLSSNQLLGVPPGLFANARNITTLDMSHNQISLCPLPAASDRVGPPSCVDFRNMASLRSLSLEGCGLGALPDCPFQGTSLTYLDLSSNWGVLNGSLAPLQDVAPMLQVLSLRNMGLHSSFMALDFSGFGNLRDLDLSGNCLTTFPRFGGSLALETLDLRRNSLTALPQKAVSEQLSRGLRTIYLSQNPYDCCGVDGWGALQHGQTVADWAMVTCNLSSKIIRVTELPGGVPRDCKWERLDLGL
T9 sequence (P01137 30-390 limits assumed, chain 2 of 2): as the sequence (P01137 30-390 limits assumed, chain 2 of 2) above

IC50, mLTBP1 assay (CAGA12 luciferase) [1]: 0.386 nM
IC50, endogenous hLTBP assay (CAGA12 luciferase) [2]: 8.68 nM
binding result [3]: no binding (tested: 200 nM)
Kd [4]: 0.486 nM
koff [4]: 6.82e-05 s⁻¹
kon [4]: 140000 M⁻¹ s⁻¹
Kd [5]: 0.368 nM
koff [5]: 7.47e-05 s⁻¹
kon [5]: 203000 M⁻¹ s⁻¹
Kd [6]: 0.609 nM
Kd [7]: 3.37 nM
B1: SR-AB62 (antibody, IgG1, V domains shown)
VH: QLQLQESGPGLAKPSETLSLTCTVSGGSIRSSSYYWGWIRQPPGKGLEWIGSISYSATTYYNPSLKSRVTISVDTSKNQFSLKLSSVTAADTAVYYCASDPSYDSAAGMDVWGQGTTVTVSS
VL: DIQMTQSPSSLSASVGDRVTITCRASKVISSYLNWYQQKPGKAPKLLIYYASSLQSGVPSRFSGSGSGTDFTLTISSLQPEDFATYYCQQSNDWPFTFGGGTKVEIK
notes: Cycle 3, lineage SR-AB24

IC50, mLTBP1 assay (CAGA12 luciferase) [8]: 0.268 nM
IC50, endogenous hLTBP assay (CAGA12 luciferase) [9]: 3.12 nM
binding result [3]: no binding (tested: 200 nM)
Kd [4]: 0.467 nM
Kd [5]: 0.471 nM
koff [5]: 9.18e-05 s⁻¹
kon [5]: 195000 M⁻¹ s⁻¹
Kd [6]: 1.03 nM
Kd [7]: 2.85 nM
B2: SR-AB64 (antibody, IgG1, V domains shown)
VH: B1 VH with A12V, S99G, A106I, D110Q
VL: B1 VL with K27Q, V28S, S31Y, Y50S, L54R, S91G, N92F, W94F, F96L
notes: Cycle 3, lineage SR-AB26

Second part, the binder before the results:

B3: SR-AB22 (antibody, IgG1, V domains shown)
VH: QVQLVESGGGVVQPGRSLRLSCAASGFTFRSYVMHWVRQAPGKGLEWVAVISHEGSLKYYADSVKGRFTISRDNSKNTLYLQMNSLRAEDTAVYYCAVPRIAARRGGFGYWGQGTLVTVSS
VL: NFMLTQPHSVSESPGKTVTISCTRSSGNIDNNYVQWYQQRPGSSPTTVIYEDNQRPSGVPDRFSGSIDSSSNSASLTISGLKTEDEADYYCQSYDSDNQGVVFGGGTKLTVL
notes: Cycle 2, lineage SR-AB14
Kd [10]: 1.88 nM
Kd [11]: 2.43 nM
Kd [12]: 1.56 nM
IC50, mLTBP1 assay (CAGA12 luciferase) [13]: 1.39 nM
IC50, endogenous hLTBP assay (CAGA12 luciferase) [14]: 4.62 nM

B4: SR-AB47-HuFab (Fab, V domains shown)
VH: B3 VH with L57G, V98R, Y110S
VL: B3 VL with N31Y, Q54V, S96Y, G100A
notes: Human Fab; also called SR-AB47 Fab
Kd [15]: 0.074 nM
koff [15]: 0.000136 s⁻¹
kon [15]: 1.84e+06 M⁻¹ s⁻¹
Kd [16]: 9.16 nM
Kd [17]: 0.217 nM
Kd [18]: 6.5 nM
Kd [19]: 0.33 nM
Kd [20]: 0.198 nM
Kd [21]: 1.95 nM
Kd [22]: 0.4 nM
Kd [23]: 6.66 nM

B5: SR-AB43-HuFab (Fab, V domains shown)
VH: B3 VH with V98R
VL: B3 VL with N31Y, Q54V, G100R
notes: Human Fab; also called SR-AB43 Fab
Kd [15]: 0.276 nM
koff [15]: 0.000284 s⁻¹
kon [15]: 1.03e+06 M⁻¹ s⁻¹
Kd [24]: 4.43 nM

B6: SR-AB49-HuFab (Fab, V domains shown)
VH: B3 VH with L57G, V98R, Y110S
VL: B3 VL with N31Y, Q54V, S93G, S96W, N98T
notes: Human Fab; also called SR-AB49 Fab
Kd [15]: 0.17 nM
koff [15]: 0.000138 s⁻¹
kon [15]: 809000 M⁻¹ s⁻¹
Kd [16]: 6.95 nM
Kd [17]: 0.319 nM
Kd [18]: 6.55 nM
Kd [19]: 0.58 nM
Kd [20]: 0.379 nM
Kd [21]: 2.82 nM
Kd [22]: 0.65 nM
Kd [23]: 7.7 nM
